# Data taken from the DeepSol protein solubility set.
# Assay: soluble on expression in E. coli; label from the status in PepcDB or PDB records
row,Sequence,soluble on expression in E. coli
1,MTQITKFHGVFPPVPTIVNAQGELDKVGMATLLDHLIASKVNGVLLLGSGGEFCHMTNALRLETAEFCVRHINRRIPVLLGISSTSTQEVIEYGQHADRLEVDAVLVLNPYYARLTDEYIYHHFKTVANNIKSPVILYNFPALTGQDLSVDLITRLAQDHPNIIGIKDTVDNISHIREIINNVRPVRPDFVIFSGYDEYMMDTLILGGNGGIPATANFAPQLTCGIYRAWCEKEYETMFGLQRRLSALSTIYSLDSPFFGIIKKAIQLSGVDISTHVMPPVLPANEEHISNLKQILQRAGL,not soluble
2,MTQIVVGENEHIESALRRFKREVSKAGIFQDMRKHRHFETPIEKSKRKKLALHKQSKRRFRTLEHHHHHH,not soluble
3,MTQKLHIKTWGCQMNEYDSSKMADLLLSTHGLELTEAPEEADVLLLNTCSIREKAQEKVFHQLGRWKELKKNNPNLVIGVGGCVASQEGEHIRHRAPYVDIIFGPQTLHRLPEMINQIRGGKSSVVDVSFPEIEKFDRLPEPRAEGPTAFVSIMEGCNKYCTFCVVPYTRGEEVSRPVDDVLFEIAQLAEQGVREVNLLGQNVNAYRGPTHDGQICSFAELLRLVASIDGIDRLRFTTSHPIEFTDDIIDVYRDTPELVSFLHLPVQAGSDRVLTMMKRAHTALEYKSIIRKLRAVRPDIQISSDFIVGFPGETAEDFEQTMNLIAQVNFDMSFSFVYSARPGTPAADMPDDVTEDEKKQRLYVLQERINQQAAQFSRRMLGTEQRVLVEGPSKKDIMELTGRTETNRIVNFQGSPEMIGKFVDVKITDVYTNSLRGEVVRTEDEMGLRIAQSPQEVMNRTRKEDELGVGRYHGLEHHHHHH,soluble
4,MTQLWVERTGTRRYIGRSTRGAQVLVGSEDVDGVFTPGELLKIALAACSGMASDQPLARRLGDDYQAVVKVSGAADRDQERYPLIEETMELDLSGLTEDEKERLLVVINRAVELACTVGRTLKSGTTVNLEVVDVGA,not soluble
5,MTQPLVGKQILIVEDEPVFRSLLDSWFSSLGATTALAGDGVDALELMGRFTPDLMICDIAMPRMNGLKLVENLRNRGDQTPILVISATENMADIAKALRLGVEDVLLKPVKDLNRLRETVFACLYPNMFNSRVEEEERLFRDWDAMVSNPTAAAQLLQELQPPVQQVISHCRINYRQLVSADQPGLVLDIAPLSDNELAFYCLDVTRAGDNGVLAALLLRALFNGLLQDQLGQQKHRLPELGALLKQVNHLLRQANLPGQFPLFVGYYHSELKNLILVSAGLNATLNTGAHQVQISSGVPLGTLGNAYLNQLSQRCDSWQCQIWGAGGRLRLMLSAE,not soluble
6,MTQPSAPAPQIAIDSHDDKAWRDTLLKVAAILCERQPDSPQGYRLRRHALWQSITSTPQAESDGRTPLAAVSADMVADYQSRLASADMALWQQVEKSVLLAPYWLDGHCLSAQTALRLGYKQVADTIRDEVIRFLERLPQLTGLLFNDRTPFLSEQTKQWLAASPDGKVAPVAQIGEESQAARACFAGQGLEAALRYLDMLPEGDPRDQFHRQYLAAQLTEEAGLIQLAQQQYRMLLMIGSQMMVSDWEPSLLTQLEQKFTAEQ,soluble
7,MTQTNNRLFDEIGRLMNDAAGAAQGVKREIDGVVRSQAEKILRDLDLVKREEFEAFKEMVRLTREENEALKARIAALEARQGGGSEPPTALA,not soluble
8,MTQYVFEMGMTCNGCANAARKVLGKLGEDKIKIDDINVETKKITVTTDLPASDVLEALKKTGKEIKQLQ,not soluble
9,MTRKPLTLTGSALAVLRALVERGPSTRPQLGQDLGLSRPTMSAAMAELMEAGLVEPIGSVQGGMGRRAVEYRVATHAGHVIAVDAGSTHIRLRLSTLDRRLLHASLHPLPNSQYSLTPQISSVVADAVAEALEKTEVDWGPLLAMVIAIPTRVVGPEGDTAATDQEVIFTNFTPPPQVDCTLVNNVNCAAVAEYHYGAARGHQTFAFLQVGVKIGLGLMLNGQILPGVNGAAGEIGHITFPFAPGLTPVPGEAERYIGTEAFMARVRADWPKGSGRPPADTYELLARAGEGDAAALRHVEGHAAEIGAVIAICVSVIDPGLVVLGGGYGASPLLRPKVEEVVRHLAFPAEITTSTLAAEATVLGAERLAVDRAVSVLLGLPA,not soluble
10,MTRSALKPFKNKRVMVTGRIQRVLFKNYLDRHSTFKPNVRILLKDVFVSGVSIDHLWLYETNKYYALAMELIHQRVKFSANVVPYYKINRNNNLFVQDYGIKRKGRLITEEAYNQNNQYQDKIYEKLPDIDFRLEDFYSKENLEHHHHHH,not soluble
11,MTRTLASLFGPLQPMALAEDLAAPLLAMPIPEGAADPAAAARAPAAGPTVPDRFTVARGLAVVPVRGILTPNMAQYERWFGWATYHGLAETMAHLAASEDAAAIVLEIDSPGGLVCGIEAAAEAIAAAAAVKPVHALVSPLAASAAYWLASQASEIVMTPGAVAGSIGVALTAAAHVQPGANGAQIFEMSSRHARAKRPDASTEAGRAELQRSLDEAEAAFHAAVSAGRAIPAAELAARLSVTDDPQDGGATFRAPEAIRRGLADRIETRAAFYARLAARTAPKPRSPSRAFAARAAAAAALARS,not soluble
12,MTSDATHEEAVSLLQELGLKEYEAKCFVGLSRMSSGTAKGLSEVTDVPRTRVYDAVRILEAKGLVEVQHSSPQQFRAVPLSEATETLRDQYEERIERLQSALREMGRIEADNDEAELQEVWSLSGSDAIENRAAAISADATDEVVLVIGSEAVLTEPLIKQLNSLNPNADLIVGTGSASIRDRVEQEIPRATAFLSELDWLHSEMIPEEDAAVGRLLLVDRSTMLVSSINPQTGDEQAIFATGLRNGLIVIARRLLSQGVVEMTPLEQD,not soluble
13,MTSGAPPTISTEKSRSKQLRKSSKRTASTVEGTEAKQMRGDTENRSDGEMDDVSTSSEIRHGNGFIENFRSQTGNSSRTTATNERIKKKLVIKNFKANANQNDVAMGDTNIDSTDGSVGRDWAVLSDNVFAILEDRKTVTTLEGLFSKVRSVCDKNQSKVLYDRLVAIVVQFAKSLKESLNAVEQVPLAEDNCEQYLEKFGQIWQAYPVKINLIRNIFLHLDRIALGATDTEILPLWECFMQIFQKTFFPNIFKEFKATKLFNALYMAMQKIMQRYPVDSPLRSLVDMLQTVHVSEEFAKFLISQLREHYNNERIDKVPKMNCNDYMEYCEDQINRYSQLVKVNFDEPSALKDVQATVTNCLIQQAIPEILTHDFDDLIDSDNISDIGRMFNLCRQCVGGEDEVRTQFSKYLKKRGEKLIATCPDEDLVSELLAFKKKVDFIMTGSFKSANDPVKMRQCLSDAFESFVNKQVDRSAELISKHFHTLLHSSNKNVSDDTTLDQMVDEAIVLFRYLRGKDVFEAYYKRGLAKRLFLERSASVDAEKMVLCKLKTECGSAFTYKLEGMFKDMDASENYGRLFNQYLEHMNKEKANFTARVITPEYWPTYDTYEINIPKEMRDTLTDYQDFYRVQHGNRNVKWHHGLASAVISASFRPGCKKELIATMYQTVILLLFNKCETWTVAEIVEHTKILEIEVVKNVLALLGGRDKPKVLQRVEGGGSEKKEGTVENLKNEKFVVNSKFTEKRCRVRIAQVNIKTAVEETKEVKEEVNSDRQYKIDAAVVRIMKARKQLNHQTLMTELLQQLRFPVSTADIKKRLESLIEREYISRDPEEASSYNYVA,not soluble
14,MTSGGNSIEPSVVAEAEKMLFCYQYDQTITISITSSADPCPLCNGGFLDEYVDPNPNPIPNLILPMSDPISSRFSFIPVMDFTNPSFLGESMEPQSTQQQLNAFDPNQLSDQANPLAGNHGDYFFGRGLEDLI,not soluble
15,MTSGQFKPVPQILMELPPAEQQRLFNEAAAIIRHLEWTDAVQLTALVMGSEALQQQLLAMLVNYVTKELRAEIQYDD,soluble
16,MTSSDLPVMLFAAGFGTRMGDLTRTRPKPLIEVAGRPLVDHTLDLARAVSPPRIVANLHYLAPLLAAHLAPQGVLLSHEQPDILDTGGGLRQALPLLAAETVFTANSDAIWSGPNPFALLAEAWEPARMDALLMCVPVGQAIGHAGHGDFSRDAQGRIERGPGLIYGGVQIVKTGGLGDFDMPAFSLNLLWNRIGAAGRLFALEYPGRWCDVGHPGGIALAEEMLRDVLEHHHHHH,soluble
17,MTSSQLVKMRLELRRGVLVLAVLGLLKQPHYGYSLRKQLQDGGIDIDEGTLYPLVRRLAEQGLLDSEWRQAEGRERRYYQLSSSGAELLSQLTEEWQQLNGALAFLLGQVTDENAEEN,not soluble
